According to patent publication US20240382605A1 (IONIS PHARMACEUTICALS, published 2024):
Starred links: 1 amine or outer side, 2 acyl side, 3 side chain; linkers in the order of their positions; H or OH if unused. Positions of bridges follow the written chain, without caps; N, C: chain ends. Non-standard residues stand in square brackets, D forms with d. Primed or numbered codes have the meaning given here. No end group written: not given here. *: point of attachment. azidopropyl = N-terminal modification AzPro, [N-]=[N+]=NCCC*; TATB = O=C(C[*:1])N1CN(C(=O)C[*:2])CN(C(=O)C[*:3])C1; oligonucleotide 1590463 = not defined here; Hyp = O=C(O)[C@@H]1C[C@@H](O)CN1; azidopropyl″ = [N-]=[N+]=NCCC*; Aze = O=C(O)[C@@H]1CCN1

B1: 1591118-BCY17896 (peptide)
peptide: CPXDAYLGCXSYCX
modifications: as printed CP[HyP]DAYLGC[tBuGly]SYC[K(N3)]: N-terminal acetyl; C-terminal amide; three Cys bound to TATB scaffold; [HyP] 4-trans-hydroxy-L-proline at 3; [tBuGly] t-butyl glycine at 10; [K(N3)] 6-azido lysine at 14 joined via BCN linker to oligonucleotide 1591118
notes: also called Compound No. 1591118 conjugated to BCY17896
B2: 1598988-BCY17896 (peptide)
peptide: CPXDAYLGCXSYCX
modifications: as printed CP[HyP]DAYLGC[tBuGly]SYC[K(N3)]: N-terminal acetyl; C-terminal amide; three Cys bound to TATB scaffold; [HyP] 4-trans-hydroxy-L-proline at 3; [tBuGly] t-butyl glycine at 10; [K(N3)] 6-azido lysine at 14 joined via BCN linker to oligonucleotide 1598988
B3: 1598988-BCY17901 (peptide)
peptide: CPXDAYLGCXSYCEPWX
modifications: as printed CP[HyP]DAYLGC[tBuGly]SYCEPW[K(N3)]: N-terminal acetyl; C-terminal amide; three Cys bound to TATB scaffold; [HyP] 4-trans-hydroxy-L-proline at 3; [tBuGly] t-butyl glycine at 10; [K(N3)] 6-azido lysine at 17 joined via BCN linker to oligonucleotide 1598988
B4: 1590463-BCY17874 (peptide)
peptide: {oligonucleotide 1590463-BCN linker-azidopropyl}-CSPDAHLGCISYCEPW-NH2
modifications: linker 1-9-13 via TATB; reading uncertain
notes: also called Compound No. 1590463 conjugated to BCY17874
B5: 1590463-BCY17871 (peptide)
peptide: NWNCSPDAHLGCISYCX
modifications: not fully specified; as printed NWNCSPDAHLGCISYC[K(N3)]: N-terminal acetyl; C-terminal amide; three Cys bound to TATB scaffold; [K(N3)] 6-azido lysine at 17 joined via BCN linker to oligonucleotide 1590463
notes: also called Compound No. 1590463 conjugated to BCY17871
B6: 1590463-BCY17878 (peptide)
peptide: {oligonucleotide 1590463-BCN linker-azidopropyl}-CS[Hyp]DAHLGCISYC-NH2
modifications: linker 1-9-13 via TATB; reading uncertain; also: printed as CS[HyP]DAHLGCISYC
notes: also called Compound No. 1590463 conjugated to BCY17878
B7: 1590463-BCY17870 (peptide)
peptide: NWNCSPDAHLGCISYCX
modifications: not fully specified; as printed NWNCSPDAHLGCISYC[K(N3)]: no N-terminal modification; C-terminal amide; three Cys bound to TATB scaffold; [K(N3)] 6-azido lysine at 17 joined via BCN linker to oligonucleotide 1590463
notes: also called Compound No. 1590463 conjugated to BCY17870
B8: 1590463-BCY17869 (peptide)
peptide: {oligonucleotide 1590463-BCN linker-azidopropyl″}-CSPDAHLGCISYC-NH2
modifications: linker 1-9-13 via TATB; reading uncertain
notes: also called Compound No. 1590463 conjugated to BCY17869
B9: 1590463-BCY17876 (peptide)
peptide: {oligonucleotide 1590463-BCN linker-azidopropyl}-CP[Hyp]DAYLGCISYC-NH2
modifications: linker 1-9-13 via TATB; reading uncertain; also: printed as CP[HyP]DAYLGCISYC
notes: also called Compound No. 1590463 conjugated to BCY17876
B10: 1590463-BCY17879 (peptide)
peptide: CSXDAHLGCISYCX
modifications: not fully specified; as printed CS[Aze]DAHLGCISYC[K(N3)]: N-terminal acetyl; C-terminal amide; three Cys bound to TATB scaffold; [Aze] azetidine at 3; [K(N3)] 6-azido lysine at 14 joined via BCN linker to oligonucleotide 1590463
notes: also called Compound No. 1590463 conjugated to BCY17879
B11: 1590463-BCY17877 (peptide)
peptide: CSXDAHLGCISYCX
modifications: not fully specified; as printed CS[HyP]DAHLGCISYC[K(N3)]: N-terminal acetyl; C-terminal amide; three Cys bound to TATB scaffold; [HyP] 4-trans-hydroxy-L-proline at 3; [K(N3)] 6-azido lysine at 14 joined via BCN linker to oligonucleotide 1590463
notes: also called Compound No. 1590463 conjugated to BCY17877
B12: 1590463-BCY17868 (peptide)
peptide: CSPDAHLGCISYCX
modifications: not fully specified; as printed CSPDAHLGCISYC[K(N3)]: N-terminal acetyl; C-terminal amide; three Cys bound to TATB scaffold; [K(N3)] 6-azido lysine at 14 joined via BCN linker to oligonucleotide 1590463
notes: also called Compound No. 1590463 conjugated to BCY17868
B13: 1590463-BCY17880 (peptide)
peptide: {oligonucleotide 1590463-BCN linker-azidopropyl}-CS[Aze]DAHLGCISYC-NH2
modifications: linker 1-9-13 via TATB; reading uncertain; also: printed as CiS[Aze]DAHLGCiiISYCiii
notes: also called Compound No. 1590463 conjugated to BCY17880
B14: BCY17871-1598988 (peptide)
peptide: NWNCSPDAHLGCISYCX
modifications: as printed NWNCSPDAHLGCISYC[K(N3)]: N-terminal acetyl; C-terminal amide; three Cys bound to TATB scaffold; [K(N3)] 6-azido lysine at 17 joined by SPAAC to BCN on oligonucleotide 1598988
notes: also called tracer compound
B15: 1590463-BCY19405 (peptide)
peptide: Ac-CSPDAHLGCISYCEPW
modifications: linker 1-9-13 via TATB; not fully specified (C-terminus); printed as CSPDAHLGCISYCEPW[PEG10][K(N3)]; also: azide of C-terminal K(N3) clicked via BCN linker to oligonucleotide 1590463
notes: also called Compound No. 1590463 conjugated to BCY19405
B16: 1590463-BCY19406 (peptide)
peptide: Ac-CSPDAHLGCISYCEPW
modifications: linker 1-9-13 via TATB; not fully specified (C-terminus); printed as CSPDAHLGCISYCEPW[PEG24][K(N3)]; also: azide of C-terminal K(N3) clicked via BCN linker to oligonucleotide 1590463
notes: also called Compound No. 1590463 conjugated to BCY19406
B17: 1590463-BCY19407 (peptide)
peptide: CSPDAHLGCISYCEPWGGSGGSX
modifications: not fully specified; as printed CSPDAHLGCISYCEPWGGSGGS[K(N3)]: N-terminal acetyl; C-terminal amidated; three Cys bound to molecular scaffold; [K(N3)] 6-azido lysine at 23 joined via BCN linker to oligonucleotide 1590463
notes: also called Compound No. 1590463 conjugated to BCY19407

molecular target: T1, hCD71-Nluc fusion protein (human, UniProt P02786 1-760); experiment: nanoBRET competition, tracer BCY17871-1598988 60 nM, HEK293 hCD71-Nluc membranes
T1 construct: whole, on cells; Used as crude membrane fractions of HEK293 cells stably expressing hCD71-Nluc; also called human transferrin receptor, CD71, fused to NanoLuc; not shown: NanoLuc (ProMega) luciferase joined through its N-terminal Val
T1 sequence (P02786 other isoform, or with tags, fused parts or gaps): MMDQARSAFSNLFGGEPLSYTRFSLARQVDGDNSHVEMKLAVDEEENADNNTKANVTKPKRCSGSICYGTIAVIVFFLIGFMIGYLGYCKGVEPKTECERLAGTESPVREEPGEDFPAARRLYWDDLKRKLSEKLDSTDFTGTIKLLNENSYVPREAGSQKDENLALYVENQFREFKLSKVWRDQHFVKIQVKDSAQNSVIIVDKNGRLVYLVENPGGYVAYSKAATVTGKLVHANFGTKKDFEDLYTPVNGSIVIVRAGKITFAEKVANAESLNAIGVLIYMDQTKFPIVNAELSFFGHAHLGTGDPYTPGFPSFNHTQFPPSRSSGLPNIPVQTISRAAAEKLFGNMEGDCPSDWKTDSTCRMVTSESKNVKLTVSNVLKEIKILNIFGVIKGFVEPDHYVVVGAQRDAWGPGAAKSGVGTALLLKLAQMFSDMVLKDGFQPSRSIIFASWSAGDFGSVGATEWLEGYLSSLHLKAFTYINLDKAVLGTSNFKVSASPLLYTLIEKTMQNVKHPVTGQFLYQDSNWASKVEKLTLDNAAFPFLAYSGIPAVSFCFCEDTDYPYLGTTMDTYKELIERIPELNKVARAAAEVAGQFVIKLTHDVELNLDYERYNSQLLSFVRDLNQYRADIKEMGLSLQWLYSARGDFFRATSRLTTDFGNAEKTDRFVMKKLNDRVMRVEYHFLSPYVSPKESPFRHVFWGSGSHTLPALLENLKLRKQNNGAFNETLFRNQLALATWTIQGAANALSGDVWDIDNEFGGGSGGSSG

Ki | Binder
3.1 nM | B1
9.9 nM | B2
4.4 nM | B3

molecular target: T1, hCD71-Nluc fusion protein; experiment: as above; remark: another data set of the same source
Description: (§1) The mixtures were incubated for 3 hours at room temperature to reach equilibrium. To initiate BRET, 12.4 μL of 100 μM of the Nluc substrate furimazine was added to each well, and the mixtures were incubated for 5-30 minutes. The assay plate was read on a Promega GlowMax Discover plate reader at wavelengths of 450 nm and 600 nm, and the ratio of emissions at wavelengths 450/600 were used to yield % BRET efficiency. Data was subjected to non-linear regression, then fitted to a single site binding hyperbolic function.
(§2) In order to evaluate modified oligonucleotides conjugated to CD71 bicycle ligands and RNAi compounds conjugated to CD71 bicycle ligands, the assay was modified as follows. […] Modified oligonucleotides were conjugated to the bicycle ligands through a SPAAC reaction These were then added at a range of concentrations in triplicate assays points, and the mixtures were incubated for 3 hours at room temperature. BRET was initiated with the addition of furimazine and the assay was completed as described above.

Ki | Binder
10 nM | B4
6 nM | B5
74 nM | B6
7 nM | B7
55 nM | B8
29 nM | B9
25 nM | B10
18 nM | B11
20 nM | B12
102 nM | B13

molecular target: T1, hCD71-Nluc fusion protein; experiment: nanoBRET saturation binding, HEK293 hCD71-Nluc membranes, single site fit
Description: as §1

Kd | Binder
57 to 58 nM | B14

molecular target: T2, CD71 (Homo sapiens (Human), UniProt P02786 89-760); experiment: SPR Biacore X100, conjugate duplexed to biotin-DNA on streptavidin chip, CD71 injected 6.25-100 nM, 1:1 fit
T2 construct: also called transferrin receptor; TfR1
T2 sequence (P02786 89-760 limits assumed, form in doubt): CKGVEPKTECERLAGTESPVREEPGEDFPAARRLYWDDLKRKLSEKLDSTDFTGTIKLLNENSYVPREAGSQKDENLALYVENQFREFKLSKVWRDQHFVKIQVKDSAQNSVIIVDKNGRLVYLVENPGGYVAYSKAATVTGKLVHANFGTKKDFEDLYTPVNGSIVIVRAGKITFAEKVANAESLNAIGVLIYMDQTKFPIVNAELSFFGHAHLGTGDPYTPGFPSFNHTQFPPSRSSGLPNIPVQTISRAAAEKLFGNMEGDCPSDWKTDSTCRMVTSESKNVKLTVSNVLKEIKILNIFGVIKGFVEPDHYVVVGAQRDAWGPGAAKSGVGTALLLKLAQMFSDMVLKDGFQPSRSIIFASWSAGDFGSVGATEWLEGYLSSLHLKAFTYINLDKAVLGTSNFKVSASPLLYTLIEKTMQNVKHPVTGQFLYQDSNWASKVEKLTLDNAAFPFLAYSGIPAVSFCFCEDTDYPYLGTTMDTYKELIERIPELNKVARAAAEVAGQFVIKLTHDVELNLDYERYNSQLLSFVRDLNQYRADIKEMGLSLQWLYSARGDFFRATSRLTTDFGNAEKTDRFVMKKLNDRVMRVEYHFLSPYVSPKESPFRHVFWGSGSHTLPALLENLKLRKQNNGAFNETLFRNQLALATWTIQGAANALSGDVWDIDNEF
Description: The binding affinity for each of the following modified oligonucleotides conjugated to CD71 bicycle ligands was tested on a Biacore X100 surface plasmon resonance (SPR) instrument. 200 units of modified oligonucleotides conjugated to CD71 bicycle ligand were immobilized on a streptavidin chip by injecting a 20 nM solution of 5′-Biotin-labeled DNA (5′-Biotin-TEG-DNA complement to modified oligonucleotide) duplexed with modified oligonucleotides conjugated to CD71 bicycle ligand in HBS—P (10 mM HEPES, pH 7.4, 150 mM NaCl, 0.0005% Surfactant P20) running buffer. […] Kinetic and equilibrium binding analysis was performed using Biacore X100 Evaluation Software, applying 1:1 binding fit.

Kd | Binder
32 nM | B4
2.4 nM | B5
126 nM | B6
0.1 nM | B7
14.5 nM | B8
95.4 nM | B9
31.2 nM | B10
0.9 nM | B12
8.2 nM | B13

molecular target: T1, hCD71-Nluc fusion protein; experiment: nanoBRET competition, tracer BCY17871-1598988 60 nM, HEK293 hCD71-Nluc membranes; remark: another data set of the same source
Description: as §1, §2

Ki | Binder
3 nM | B15
2 nM | B16
2 nM | B17
